Target: the molecule itself
Experiment: SEC

B1: M tuberculosis MscL ion channel, wild type (natural protein)
chain: MLKGFKEFLARGNIVDLAVAVVIGTAFTALVTKFTDSIITPLINRIGVNAQSDVGILRIGIGGGQTIDLNVLLSAAINFFLIAFAVYFLVVLPYNTLRKKGEVEQPGDTQVVLLTEIRDLLAQTNGDSPGRHGGRGTPSPTDGPRASTESQ
notes: also called TbMscL; WT TbMscL
- stoichiometry N: 5

Reference: paper PMC9304679, “HDX-guided EPR spectroscopy to interrogate membrane protein dynamics” (STAR Protocols, 2022)
